Target: T1, [4Fe-4S]-NsrR-His6 (anaerobically purified) (Bacillus subtilis (JH642 background), UniProt O07573 1-146)
T1 sequence: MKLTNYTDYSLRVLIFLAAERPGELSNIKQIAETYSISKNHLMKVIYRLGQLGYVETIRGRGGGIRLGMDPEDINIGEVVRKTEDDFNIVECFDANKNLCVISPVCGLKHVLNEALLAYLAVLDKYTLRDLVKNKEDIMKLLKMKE
Assay: EMSA

GCATAACATGTATCTTAAATATTCCTTTCG (ssDNA) [nasD coding strand 30-mer oMN09-489]
binding result: no binding

Source: paper PMC3075490
